Experimental data: article PMC6222199, “Regulatory Targets of the Response Regulator RR_1586 from Clostridioides difficile Identified Using a Bacterial One-Hybrid Screen”

Columns and labels:
[1] = target: T1, RR_1586 (Clostridioides difficile R20291, UniProt A0A9R0BKD1 1-223); assay: EMSA; 10 mM Mg2+; EMSA: 5 pmol DNA in 10 ul (500 nM), 10 mM Tris pH 8, 50 mM NaCl, 10 mM MgCl2, room temperature 10 min; 10% PAGE 0.5x TBE on ice, ethidium bromide; details: protein: recombinant; tags: His6; chain copies: 2; blunt
[2] = target: T1, RR_1586; assay: EMSA; 10 mM Mg2+; unphosphorylated; EMSA: 5 pmol DNA in 10 ul (500 nM), 10 mM Tris pH 8, 50 mM NaCl, 10 mM MgCl2, room temperature 10 min; 10% PAGE 0.5x TBE on ice, ethidium bromide; details: protein: recombinant; tags: His6; chain copies: 2; blunt

B1: CDR20291_0578 native direct repeat (dsDNA)
DNA 1: ATTTTATTAAGAATGGGTTAAGAGTATAC
DNA 2: GTATACTCTTAACCCATTCTTAATAAAAT
Q: Does B1 bind [1]?
A: binds

B2: CDR20291_3145 site (dsDNA)
DNA 1: ATAGTTAAGGTTTAATTAAGATTAAA
DNA 2: TTTAATCTTAATTAAACCTTAACTAT
Q: Does B2 bind [1]?
A: binds

B3: CDR20291_3121 (pst) site (dsDNA)
DNA 1: CTATATTAGGATTAAGTTAAGCAAGTGT
DNA 2: ACACTTGCTTAACTTAATCCTAATATAG
Q: Does B3 bind [1]?
A: binds

B4: CDR20291_1583 site (dsDNA)
DNA 1: AGGAATTAAGGAGCAATTAAATGATG
DNA 2: CATCATTTAATTGCTCCTTAATTCCT
Q: Does B4 bind [2]?
A: binds
